Test results taken from the supplement of paper PMC10724198.
± gives the standard deviation of the averaged measurements.

Experiments:
Saccharomyces cerevisiae [1] = test: protein stability index of tFT-peptide fusion (C-terminal peptide) (PSI (0-1 scale)); higher = more stable (slower turnover)
Experimental: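 MPS profiling in S. cerevisiae of the tFT-X12 degron library: putative degron peptides plus stable controls, 12 aa, fused to the C-terminus of a sfGFP-mCherry timer. Cells are FACS-sorted into 8 mCherry/sfGFP bins and deep-sequenced. PSI runs from 0 (unstable) to 1 (stable). Backgrounds are wild type, das1Δ and doa10Δ at 30 °C, and wild type, das1Δ, cdc34-1 and cdc53-1 at 37 °C; 2-3 technical replicates each.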

Saccharomyces cerevisiae [2] = test: as above; details: genetic background: wild type; temperature: 30 C
[3] = genetic background: cdc34-1, temperature: 37 C
[4] = genetic background: cdc53-1, temperature: 37 C
[5] = genetic background: das1 deletion, temperature: 30 C
[6] = genetic background: das1 deletion, temperature: 37 C
[7] = genetic background: doa10 deletion, temperature: 30 C
[8] = genetic background: wild type, temperature: 30 C
[9] = genetic background: wild type, temperature: 37 C
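Also: PSI is a weighted mean of sequencing reads over stability bins, variants kept only with over 10 reads, mCherry proximal and sfGFP distal, peptide attached via GGGS linker.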

Sequence	protein stability index (Saccharomyces cerevisiae [1]; [3])	protein stability index (Saccharomyces cerevisiae [1]; [4])	protein stability index (Saccharomyces cerevisiae [1]; [5])	protein stability index (Saccharomyces cerevisiae [1]; [6])	protein stability index (Saccharomyces cerevisiae [1]; [7])	protein stability index (Saccharomyces cerevisiae [1]; [8])	protein stability index (Saccharomyces cerevisiae [1]; [9])	protein stability index (Saccharomyces cerevisiae [2])
WFVCSGVYGSVM	0.676 ± 0.0086	0.749 ± 0.02	0.682 ± 0.094	0.758 ± 0.035	0.6528 ± 0.0019	0.638 ± 0.026	0.721 ± 0.0092	0.692 ± 0.013
WFVFVFCSPRSS	0.547 ± 0.048	0.618 ± 0.0098	0.4 ± 0.03	0.65 ± 0.027	0.394 ± 0.012	0.406 ± 0.017	0.568 ± 0.0097	0.5 ± 0.029
WGFSVRFVLSVF	0.0576 ± 0.004	0.145 ± 0.03	0.124 ± 0.029	0.2407 ± 0.0016	0.05 ± 0.014	0.0463 ± 0.02	0.115 ± 0.024	0.12 ± 0.017
WGVVMVCVVFGL	0.116 ± 0.019	0.247 ± 0.016	0.186 ± 0.028	0.312 ± 0.0044	0.159 ± 0.011	0.183 ± 0.019	0.252 ± 0.027	0.3249 ± 0.0027
WHFMVFFCFCVD	0.295 ± 0.04	0.399 ± 0.061	0.317 ± 0.036	0.406 ± 0.0098	0.28 ± 0.0047	0.277 ± 0.023	0.355 ± 0.028	0.381 ± 0.024
WILPASFCVVFL	0.502 ± 0.012	0.5334 ± 0.0024	0.385 ± 0.021	0.5556 ± 0.005	0.425 ± 0.019	0.397 ± 0.016	0.528 ± 0.032	0.427 ± 0.027
WLALSFFSFFFC	0.654 ± 0.014	0.7221 ± 0.00075	0.588 ± 0.025	0.6825 ± 0.0042	0.577 ± 0.047	0.57 ± 0.026	0.66 ± 0.02	0.588 ± 0.19
WLFRASSFNWVI	0.537 ± 0.017	0.7359 ± 0.0063	0.689 ± 0.04	0.802 ± 0.025	0.0843 ± 0.016	0.105 ± 0.026	0.188 ± 0.019	0.105 ± 0.036
WLFTSVTVFTFL	0.21366 ± 0.00013	0.299 ± 0.02	0.221 ± 0.023	0.421 ± 0.021	0.181 ± 0.0045	0.196 ± 0.013	0.347 ± 0.016	0.296 ± 0.045
WLSISNLVIACR	0.0277 ± 0.009	0.0619 ± 0.027	0.135 ± 0.039	0.156 ± 0.013	0.0862 ± 0.019	0.115 ± 0.025	0.127 ± 0.017	0.217 ± 0.013
WNSQGVFILAKC	0.54 ± 0.035	0.588 ± 0.032	0.375 ± 0.026	0.5687 ± 0.0026	0.334 ± 0.021	0.372 ± 0.021	0.561 ± 0.00046	0.4783 ± 0.0023
WRAFVFYHHFLD	0.665 ± 0.042	0.718 ± 0.028	0.655 ± 0.039	0.699 ± 0.014	0.329 ± 0.029	0.363 ± 0.029	0.5863 ± 0.0019	0.441 ± 0.015
WVFVETVFLVCG	0.147 ± 0.046	0.226 ± 0.04	0.176 ± 0.038	0.3159 ± 0.0011	0.142 ± 0.012	0.162 ± 0.03	0.2848 ± 0.0003	0.25 ± 0.02
WVGVVLLSVVGG	0.161 ± 0.016	0.249 ± 0.008	0.2 ± 0.032	0.344 ± 0.0057	0.164 ± 0.008	0.183 ± 0.025	0.32339 ± 0.00026	0.279 ± 0.032
